Measurements from patent publication US20230272067A1 (published 2023).
Positions count from the first letter of the chain named. Numbers in names are those of the source. Read-outs that look alike come from different tables or passages of the source. Each block holds one binder with its values, some of them ahead of it.

Experiments:
[1] = biological target: T1, extracellular domain (ECD) of mouse TIGIT (mouse, UniProt P86176 29-148, biotinylated (site not stated)); assay: SPR (Biacore T200, multi-cycle)
T1 chain: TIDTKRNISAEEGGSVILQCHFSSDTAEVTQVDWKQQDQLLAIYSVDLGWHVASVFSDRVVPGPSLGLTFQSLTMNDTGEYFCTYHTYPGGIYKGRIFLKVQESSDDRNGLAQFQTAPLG

[2] = biological target: T2, extracellular domain (ECD) of human TIGIT (human, UniProt Q495A1 22-141, biotinylated (site not stated)); assay: SPR (Biacore T200, multi-cycle)
T2 chain: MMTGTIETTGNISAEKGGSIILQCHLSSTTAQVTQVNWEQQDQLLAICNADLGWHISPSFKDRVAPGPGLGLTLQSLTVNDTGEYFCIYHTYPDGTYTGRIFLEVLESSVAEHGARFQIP

[3] = biological target: T2, extracellular domain (ECD) of human …; assay: competition ELISA; competition with hCD155
[4] = biological target: T1, extracellular domain (ECD) of mouse …; assay: competition ELISA; competition with mCD155
[5] = biological target: T2, extracellular domain (ECD) of human …; assay: competition ELISA; competition with hCD112
[6] = biological target: T1, extracellular domain (ECD) of mouse …; assay: SPR (Biacore T200, multi-cycle)
[7] = biological target: T2, extracellular domain (ECD) of human …; assay: SPR (Biacore T200, multi-cycle)

Kd [1]: 21.6 nM
Kd [2]: 3.49 nM
B1: CS19ME3-23 (antibody, V domains shown)
VH: EVQLLESGGGLVQPGGSLRLSCAASGFTFSSYAMHWVRQAPGKGLEWVAVISYDGSNKYYADSVKGRFTISRDNSKNTLYLQMNSLRAEDTAVYYCATLEGGGRYYDFWSADYWGQGTLVTVSS
VL: QSALTQPRSVSGSPGQSVTISCTGTSSDVGGYNFVSWYQQHPGKAPKLLIYAVSKRPSGVPDRFSGSKSGNTASLTISGLQAEDEADYYCSSYSSESTRVVFGGGTKLTVL

IC50 [3]: 1.18 µg/mL
Kd [1]: 2.85 nM
Kd [2]: 3.36 nM
IC50 [4]: 0.67 µg/mL
IC50 [5]: 0.9 µg/mL
B2: CS19ME3-30-N (antibody, V domains shown)
VH: B1 VH with E1Q, L5V, L11V, G16R
VL: B1 VL with K55N

Kd [6]: 2.74 nM
Kd [7]: 8.75 nM
B3: T4M (antibody, V domains shown)
VH: QVQLQQWGAGLLKPSETLSLTCAVYGGSFNDYYWTWIRQAPGKGLEWIGEITHSGSADYNPSLKSRVTISVDTSKNQFSLKLRSVTAADTAVYYCARGLKLFRWKKTTVTTFPPYYYGMDVWGQGTTVTVSS
VL: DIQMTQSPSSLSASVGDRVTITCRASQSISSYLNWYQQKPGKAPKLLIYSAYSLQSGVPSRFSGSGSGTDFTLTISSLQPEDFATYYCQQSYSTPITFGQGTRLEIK
